For experiment [1], the target named is T1, 4H4038-bA.
T1 chain: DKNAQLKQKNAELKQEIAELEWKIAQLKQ
Description: two-hybrid library CCNG1.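 Further: natural log of median RNA to DNA barcode read ratio; higher means stronger binding.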

Experiment [2] has as its target T2, Q8-AA.
T2 chain: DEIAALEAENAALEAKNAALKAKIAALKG
Description: two-hybrid library CCmax.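 Further: natural log of median RNA to DNA barcode read ratio; higher means stronger binding.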

In experiment [3] the target is T3, O4-bP.
T3 chain: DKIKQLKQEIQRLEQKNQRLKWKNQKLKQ
In words: two-hybrid library CCNG1.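 Further: natural log of median RNA to DNA barcode read ratio; higher means stronger binding.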

Experiment [4] deals with T4, O6-bP.
T4 chain: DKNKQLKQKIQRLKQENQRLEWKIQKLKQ
In words: two-hybrid library CCNG1.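 Further: natural log of median RNA to DNA barcode read ratio; higher means stronger binding.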

For experiment [5], the target named is T5, O15-bP.
T5 chain: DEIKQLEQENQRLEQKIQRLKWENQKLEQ
In words: two-hybrid library CCNG1.

The target in experiment [6] is T6, O9-bP.
T6 chain: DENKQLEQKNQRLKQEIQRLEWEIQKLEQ
Description: two-hybrid library CCNG1.

The target in experiment [7] is T7, O7-bP.
T7 chain: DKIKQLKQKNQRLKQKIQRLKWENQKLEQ
In words: two-hybrid library CCNG1.

The target in experiment [8] is T8, O8-bP.
T8 chain: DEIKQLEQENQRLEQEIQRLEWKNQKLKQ
Description: two-hybrid library CCNG1.

In experiment [9] the target is T9, O3-bP.
T9 chain: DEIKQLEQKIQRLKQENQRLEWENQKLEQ
In words: two-hybrid library CCNG1.

Experiment [10] concerns the target T10, O2-bP.
T10 chain: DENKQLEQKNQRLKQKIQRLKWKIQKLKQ
Description: two-hybrid library CCNG1.

Experiment [11] deals with T11, O5-bP.
T11 chain: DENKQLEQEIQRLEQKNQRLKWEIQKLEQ
Description: two-hybrid library CCNG1.

The target in experiment [12] is T12, O16-bP.
T12 chain: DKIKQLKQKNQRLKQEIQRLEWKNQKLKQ
Description: two-hybrid library CCNG1.

Experiment [13] deals with T13, 4H953-bH.
T13 chain: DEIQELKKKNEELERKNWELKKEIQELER
In words: two-hybrid library CCNG1.

Experiment [14] deals with T14, 4H855-bH.
T14 chain: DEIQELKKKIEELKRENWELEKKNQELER
In words: two-hybrid library CCNG1.

Experiment [15] concerns the target T15, 4H754-bH.
T15 chain: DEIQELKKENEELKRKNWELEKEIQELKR
In words: two-hybrid library CCNG1.

Experiment [16] concerns the target T16, 4H3010-bH.
T16 chain: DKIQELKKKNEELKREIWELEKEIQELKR
Description: two-hybrid library CCNG1.

The target of experiment [17] is T17, 4H968-bH.
T17 chain: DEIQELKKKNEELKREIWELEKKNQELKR
In words: two-hybrid library CCNG1.

Experiment [18] deals with T18, 4H2673-bH.
T18 chain: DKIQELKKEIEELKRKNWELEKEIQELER
Description: two-hybrid library CCNG1.

Experiment [19] concerns the target T19, 4H4073-bH.
T19 chain: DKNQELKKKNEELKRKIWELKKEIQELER
In words: two-hybrid library CCNG1.

For experiment [20], the target named is T20, 4H683-bH.
T20 chain: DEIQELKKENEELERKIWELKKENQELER
Description: two-hybrid library CCNG1.

Experiment [21] addresses T21, 4H346-bH.
T21 chain: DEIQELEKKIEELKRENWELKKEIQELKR
Description: two-hybrid library CCNG1.

The target of experiment [22] is T22, 4H3112-bH.
T22 chain: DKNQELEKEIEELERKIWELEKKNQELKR
Description: two-hybrid library CCNG1.

The target in experiment [23] is T23, 4H797-bH.
T23 chain: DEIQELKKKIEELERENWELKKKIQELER
In words: two-hybrid library CCNG1.

Experiment [24] has as its target T24, 4H2702-bH.
T24 chain: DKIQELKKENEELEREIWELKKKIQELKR
Description: two-hybrid library CCNG1.

Experiment [25] concerns the target T25, 4H918-bH.
T25 chain: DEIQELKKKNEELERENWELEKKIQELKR
In words: two-hybrid library CCNG1.

In experiment [26] the target is T26, 4H575-bH.
T26 chain: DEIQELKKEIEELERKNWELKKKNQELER
In words: two-hybrid library CCNG1.

For experiment [27], the target named is T27, 4H780-bH.
T27 chain: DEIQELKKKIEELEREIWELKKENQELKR
In words: two-hybrid library CCNG1.

Experiment [28] addresses T28, 4H457-bH.
T28 chain: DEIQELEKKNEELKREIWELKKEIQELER
In words: two-hybrid library CCNG1.

Experiment [29] concerns the target T29, 4H3926-bH.
T29 chain: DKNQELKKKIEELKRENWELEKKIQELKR
Description: two-hybrid library CCNG1.

In experiment [30] the target is T30, 4H3427-bH.
T30 chain: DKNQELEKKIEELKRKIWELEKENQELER
In words: two-hybrid library CCNG1.

Experiment [31] has as its target T31, 4H2627-bH.
T31 chain: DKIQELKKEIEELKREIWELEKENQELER
In words: two-hybrid library CCNG1.

Experiment [32] deals with T32, 4H470-bA.
T32 chain: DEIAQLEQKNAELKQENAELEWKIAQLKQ
In words: two-hybrid library CCNG1.

For experiment [33], the target named is T33, 4H3907-bA.
T33 chain: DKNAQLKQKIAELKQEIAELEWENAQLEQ
Description: two-hybrid library CCNG1.

Experiment [34] concerns the target T34, 4H3961-bA.
T34 chain: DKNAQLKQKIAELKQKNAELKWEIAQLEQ
Description: two-hybrid library CCNG1.

In experiment [35] the target is T35, 4H607-bA.
T35 chain: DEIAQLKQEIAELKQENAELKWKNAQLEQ
In words: two-hybrid library CCNG1.

Experiment [36] has as its target T36, 4H2931-bN.
T36 chain: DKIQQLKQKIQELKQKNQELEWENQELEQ
Description: two-hybrid library CCNG1.

The target in experiment [37] is T37, 4H264-bN.
T37 chain: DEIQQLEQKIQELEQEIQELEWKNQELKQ
Description: two-hybrid library CCNG1.

Experiment [38] deals with T38, 4H2859-bN.
T38 chain: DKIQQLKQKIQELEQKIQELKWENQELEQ
In words: two-hybrid library CCNG1.

Experiment [39] deals with T39, 4H932-bN.
T39 chain: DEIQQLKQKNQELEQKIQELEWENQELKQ
In words: two-hybrid library CCNG1.

For experiment [40], the target named is T40, 4H3041-bN.
T40 chain: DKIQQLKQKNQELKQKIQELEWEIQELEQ
In words: two-hybrid library CCNG1.

The target of experiment [41] is T41, 4H2585-bN.
T41 chain: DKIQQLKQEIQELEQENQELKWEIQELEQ
Description: two-hybrid library CCNG1.

Experiment [42] deals with T42, 4H796-bN.
T42 chain: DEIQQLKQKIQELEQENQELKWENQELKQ
In words: two-hybrid library CCNG1.

In experiment [43] the target is T43, 4H730-bN.
T43 chain: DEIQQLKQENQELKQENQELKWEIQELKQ
In words: two-hybrid library CCNG1.

For experiment [44], the target named is T44, 4H949-bN.
T44 chain: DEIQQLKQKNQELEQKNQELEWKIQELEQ
In words: two-hybrid library CCNG1.

Experiment [45] concerns the target T45, 4H3381-bN.
T45 chain: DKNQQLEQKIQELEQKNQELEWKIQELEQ
Description: two-hybrid library CCNG1.

The target of experiment [46] is T46, 4H3297-bN.
T46 chain: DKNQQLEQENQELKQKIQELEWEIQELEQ
Description: two-hybrid library CCNG1.

Experiment [47] deals with T47, 4H2518-bN.
T47 chain: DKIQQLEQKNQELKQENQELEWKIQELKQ
In words: two-hybrid library CCNG1.

Experiment [48] addresses T48, 4H56-bN.
T48 chain: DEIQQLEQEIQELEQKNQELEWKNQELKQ
Description: two-hybrid library CCNG1.

Experiment [49] addresses T49, 4H2760-bN.
T49 chain: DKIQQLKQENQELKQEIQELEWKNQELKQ
Description: two-hybrid library CCNG1.

The target in experiment [50] is T50, 4H349-bN.
T50 chain: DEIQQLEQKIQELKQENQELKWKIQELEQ
Description: two-hybrid library CCNG1.

For experiment [51], the target named is T51, 4H570-bH.
T51 chain: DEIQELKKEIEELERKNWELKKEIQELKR
Description: two-hybrid library CCNG1.

The target of experiment [52] is T52, 4H3364-bN.
T52 chain: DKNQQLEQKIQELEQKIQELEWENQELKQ
In words: two-hybrid library CCNG1.

Molecule DKNAQLKQKNAELKQEIAELEWKIAQLKQ [4H4038-bA] came in with an interaction score in experiment [1] of -0.541.
Consider DEIAALEAENAALEAKNAALKAKIAALKG [Q8-AA], for which the interaction score in experiment [2] was -1.19.
Turning to DEIKQLEQENQRLEQKIQRLKWENQKLEQ [O15-bP], the interaction score is -1.2 in [3]; -0.729 in experiment [4]; -0.0595 in experiment [5]; -1.06 in experiment [6]; -0.235 in experiment [7]; -0.223 in experiment [8]. In addition, the interaction score in [9] was -0.872; in [10], -1.39; in [11], -0.178; in [12], 1.51.
With DKIQELKKEIEELKREIWELEKENQELER [4H2627-bH], the interaction score in experiment [13] was -1.4; in experiment [14], -0.425; in experiment [15], -1.94; in [16], 0.547; in [17], 0.133; in experiment [18], 0.273. The interaction score in [19] is 1.38; in experiment [20] it was 0.431; in experiment [21], -0.309; in [22] it was -0.225; in [23] it was -0.67; in experiment [24], 0.512. In addition, the interaction score was -0.493 in experiment [25]; -0.0013 in experiment [26]; -0.424 in experiment [27]; -1.91 in experiment [28]; -0.251 in [29]; 1.18 in experiment [30]. Besides, in [31], the interaction score stood at 1.3.
With DKNAQLKQKIAELKQEIAELEWENAQLEQ [4H3907-bA], the interaction score in [32] is -1.37; in experiment [33] it was 0.8; in experiment [1] it was -0.611; in experiment [34] it was -1.16; in [35], -0.806.
On to DKIKQLKQKNQRLKQEIQRLEWKNQKLKQ [O16-bP], for which the interaction score in experiment [3] is -1.21; in [4], 0.641; in experiment [6], -1.13; in experiment [7], -1.1; in experiment [8], 1.44; in experiment [9], -1.06. Moreover, the interaction score is -1.5 in [10], -0.672 in [11] and -0.576 in experiment [12].
As to DKIQQLEQKNQELKQENQELEWKIQELKQ [4H2518-bN], the interaction score in experiment [36] was -0.539; in [37], 1.11; in experiment [38] it was -0.834; in experiment [39], -0.482; in experiment [40], -0.522; in [41] it was 0.403. Also, the interaction score in experiment [42] is 0.473; in experiment [43], 1.02; in [44] it was -0.152; in experiment [45] it was -0.272; in experiment [46], -0.555; in experiment [47] it was -0.0161. The interaction score in experiment [48] was -0.0872; in experiment [49] it was 0.227; in [50] it was -0.274; in experiment [51] it was -2.15; in experiment [52] it was -0.536.

The values above are taken from article PMC10397247.
